Laboratory results published in patent publication US20180339041A1 (Kyowa Kirin, published 2018).

T1: human Mer forcedly expressed on HEK293F reporter cells (human, UniProt Q12866 21-999)
T1 sequence (looked up): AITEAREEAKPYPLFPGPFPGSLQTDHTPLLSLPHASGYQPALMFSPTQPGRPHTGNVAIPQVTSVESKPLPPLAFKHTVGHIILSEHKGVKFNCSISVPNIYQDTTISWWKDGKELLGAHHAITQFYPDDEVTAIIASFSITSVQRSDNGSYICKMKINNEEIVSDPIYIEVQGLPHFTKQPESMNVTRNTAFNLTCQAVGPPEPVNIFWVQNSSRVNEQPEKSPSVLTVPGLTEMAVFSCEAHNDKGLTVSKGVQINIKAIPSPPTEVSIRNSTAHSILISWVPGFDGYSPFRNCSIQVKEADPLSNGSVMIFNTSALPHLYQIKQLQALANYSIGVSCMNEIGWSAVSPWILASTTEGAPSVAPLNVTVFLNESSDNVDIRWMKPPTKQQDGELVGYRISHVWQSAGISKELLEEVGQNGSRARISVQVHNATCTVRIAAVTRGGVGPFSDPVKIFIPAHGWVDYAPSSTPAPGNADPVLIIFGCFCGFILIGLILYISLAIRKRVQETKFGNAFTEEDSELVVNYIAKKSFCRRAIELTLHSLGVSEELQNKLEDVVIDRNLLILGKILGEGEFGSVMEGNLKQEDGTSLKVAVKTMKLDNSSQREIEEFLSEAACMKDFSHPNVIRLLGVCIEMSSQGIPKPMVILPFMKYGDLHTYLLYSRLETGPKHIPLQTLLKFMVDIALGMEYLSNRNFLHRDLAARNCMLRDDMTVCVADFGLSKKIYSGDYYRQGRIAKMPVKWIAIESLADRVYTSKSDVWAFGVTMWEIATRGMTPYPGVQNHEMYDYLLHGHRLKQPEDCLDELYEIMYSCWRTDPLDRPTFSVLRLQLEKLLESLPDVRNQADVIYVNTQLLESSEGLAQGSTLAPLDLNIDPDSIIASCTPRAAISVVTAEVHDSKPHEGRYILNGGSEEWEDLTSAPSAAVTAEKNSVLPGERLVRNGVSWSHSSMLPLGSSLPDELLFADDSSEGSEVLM

T2: human Sky forcedly expressed on HEK293F reporter cells (human, UniProt Q06418 41-890)
T2 sequence (looked up): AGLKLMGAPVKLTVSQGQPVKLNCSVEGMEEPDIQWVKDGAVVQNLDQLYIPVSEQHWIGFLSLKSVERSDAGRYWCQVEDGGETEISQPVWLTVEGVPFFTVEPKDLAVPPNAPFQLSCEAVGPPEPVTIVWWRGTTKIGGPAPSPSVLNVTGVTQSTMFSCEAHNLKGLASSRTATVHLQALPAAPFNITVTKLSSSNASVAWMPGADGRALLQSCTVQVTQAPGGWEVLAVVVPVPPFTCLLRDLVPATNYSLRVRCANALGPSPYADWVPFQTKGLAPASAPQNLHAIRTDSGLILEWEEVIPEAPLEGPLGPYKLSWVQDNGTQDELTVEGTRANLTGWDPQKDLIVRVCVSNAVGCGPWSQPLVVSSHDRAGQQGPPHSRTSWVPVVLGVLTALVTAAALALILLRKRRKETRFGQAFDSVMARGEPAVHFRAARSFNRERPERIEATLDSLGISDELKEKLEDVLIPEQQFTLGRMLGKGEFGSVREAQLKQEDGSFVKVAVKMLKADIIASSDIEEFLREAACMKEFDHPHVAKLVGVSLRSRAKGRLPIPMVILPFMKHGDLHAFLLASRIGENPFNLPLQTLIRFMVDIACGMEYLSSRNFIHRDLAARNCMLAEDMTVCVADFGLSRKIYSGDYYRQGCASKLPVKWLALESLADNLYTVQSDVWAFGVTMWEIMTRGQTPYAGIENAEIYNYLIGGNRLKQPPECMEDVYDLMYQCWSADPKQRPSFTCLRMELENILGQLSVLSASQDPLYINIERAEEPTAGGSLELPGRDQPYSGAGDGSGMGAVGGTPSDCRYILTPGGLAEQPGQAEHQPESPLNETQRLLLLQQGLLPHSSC

B1: C-terminally FLAG-tagged human Gas6 recombinant protein (hGas6-F) (ligand, not shown: small tags and cut ends)
chain: ALLPAREATQFLRPRQRRAFQVFEEAKQGHLERECVEELCSREEAREVFENDPETDYFYPRYLDCINKYGSPYTKNSGFATCVQNLPDQCTPNPCDRKGTQACQDLMGNFFCLCKAGWGGRLCDKDVNECSQENGGCLQICHNKPGSFHCSCHSGFELSSDGRTCQDIDECADSEACGEARCKNLPGSYSCLCDEGFAYSSQEKACRDVDECLQGRCEQVCVNSPGSYTCHCDGRGGLKLSQDMDTCEDILPCVPFSVAKSVKSLYLGRMFSGTPVIRLRFKRLQPTRLVAEFDFRTFDPEGILLFAGGHQDSTWIVLALRAGRLELQLRYNGVGRVTSSGPVINHGMWQTISVEELARNLVIKVNRDAVMKIAVAGDLFQPERGLYHLNLTVGGIPFHEKDLVQPINPRLDGCMRSWNWLNGEDTTIQETVKVNTRMQCFSVTERGSFYPGSGFAFYSLDYMRTPLDVGTESTWEVEVVAHIRPAADTGVLFALWAPDLRAVPLSVALVDYHSTKKLKKQLVVLAVEHTALALMEIKVCDGQEHVVTVSLRDGEATLEVDGTRGQSEVSAAQLQERLAVLERHLRSPVLTFAGGLPDVPVTSAPVTAFYRGCMTLEVNRRLLDLDEAAYKHSDITAHSCPPVEPAAA
modifications: gamma-carboxylated glutamic acid residues in the Gla domain (producer cells co-express rat VKOR and human GGCX); positions not given
B2: KM5320 chimeric antibody (antibody, V domains shown)
VH: QIQLVQSGPELKKPGETVKISCKASGYTFTNYGMNWVKQAPGKGLKWMGWINTETGEPTYSDDFKGRFAFSLETSATTAYLQINNLRNEDMATYFCAREDGYYGTLDYWGQGTSVTVSS
VL: SIVMTQTPKFLLVSAGDRVTITCKASQSVSNDVAWYQQKPGQSPKVLIYYASNRYTGVPDRFTGSGYGTDFTFTISTVQAEDLAVYFCQQDYSSPWTFGGGTKLEIK
notes: also called KM5320 chimera; A-01

Experiments:
[1] = biological target: T1, human Mer forcedly expressed on HEK293F …; assay: cell-based or functional assay
[2] = biological target: T2, human Sky forcedly expressed on HEK293F …; assay: cell-based or functional assay
[3] = biological target: B1; assay: SPR Biacore T100, captured antibody, Gas6 analyte, first test
[4] = biological target: B1; assay: SPR Biacore T100, captured antibody, Gas6 analyte, first test; reference line A-01 printed again at the head of the LV5 HV-series block (r24), same as r7
Protocol: (§1) An anti-human IgG antibody was immobilized on a CM5 sensor chip (manufactured by GE Healthcare Japan Corp.) using Human Antibody Capture Kit (manufactured by GE Healthcare Japan Corp.) according to the attached manual. Each test antibody adjusted to 1 μg/mL was added for 10 seconds at a flow rate of 10 μL/min to flow cells. […] The measurement was performed by the […] method. The obtained sensorgram was analyzed using Bia Evaluation Software (manufactured by GE Healthcare Japan Corp.), and the kinetic constant of each antibody was calculated.

[5] = biological target: B1; assay: ELISA, hGas6-F captured by anti-FLAG, anti-human IgG-HRP
Protocol: First, 2 μg/mL anti-FLAG antibody [Monoclonal ANTI-FLAG M2 antibody produced in mouse (manufactured by Sigma-Aldrich Co. LLC) diluted with PBS (manufactured by Nacalai Tesque, Inc.)] was dispensed at 50 μL/well to a 96-well plate for ELISA (manufactured by Nalge Nunc International), and the plate was left standing overnight at 4° C. for adsorption. After removal of the immobilization solution, 1% BSA-PBS (manufactured by Nacalai Tesque, Inc.) was added thereto at 300 μL/well, and the plate was left standing at room temperature for 1 hour for blocking and washed five times with Tween 20-PBS (manufactured by Wako Pure Chemical Industries Ltd.).
In order to reduce the backgrounds of measurement values, the diluted secondary antibody solution was mixed with 50 μg/mL of an anti-DNP mouse IgG1 antibody and incubated at room temperature for 1 hour for use.

[6] = biological target: B1; assay: competitive ELISA, inhibition of hGas6-F binding to immobilised hAxl-hFc
[7] = biological target: B1; assay: SPR Biacore T100, captured antibody, Gas6 analyte, retest
Protocol: as §1
In this retest, unlike the test mentioned above, the number of antibodies to be measured and variations in the concentration of the analyte were decreased, and the assay was conducted for a short time (within several hours), instead of sufficiently leaving standing the analyte added to the vial. […] This minimizes the adsorption of the analyte to the vial and permits more accurate calculation of ka and KD values than that in the test mentioned above.

Question: Which “luminescence intensity (Egr1-luciferase reporter, HEK293F forced to express human Mer)” value [1] does the source give for B1 here?
Answer: ~3 fold

Question: What about the “luminescence intensity (Egr1-luciferase reporter, HEK293F forced to express human Sky)” value [2] of the same binder?
Answer: ~3 fold

Question: For B2, which Kd [3] is on record?
Answer: < 1870 pM

Question: And the koff [3]?
Answer: 0.000156 s⁻¹

Question: And the kon [3]?
Answer: > 83700 M⁻¹ s⁻¹

Question: What about the kon [4] of the same binder?
Answer: > 83700 M⁻¹ s⁻¹

Question: And the EC50 [5]?
Answer: 0.0113 µg/mL

Question: What about the IC50 [6] of the same binder?
Answer: 0.0218 µg/mL

Question: What about the Kd [7] of the same binder?
Answer: 730 pM

Question: And the koff [7]?
Answer: 0.000135 s⁻¹

Question: And the kon [7]?
Answer: 186000 M⁻¹ s⁻¹
